Results taken from article PMC2651628.

Key:
[1] = molecular target: CFP-vinculin (UniProt P18206); assay: FRET or BRET; u-adFRET (acceptor-depletion FRET with linear spectral unmixing) in U251MG cells co-transfected with YFP (Venus) acceptor and CFP donor fusions, fixed in 4% paraformaldehyde; FRET efficiency by region of the cell (cytosol, peripheral, focal adhesion)
[2] = molecular target: CD44-CFP (UniProt P16070); assay: as above
UniProt P16070, sequence (P16070 21-742): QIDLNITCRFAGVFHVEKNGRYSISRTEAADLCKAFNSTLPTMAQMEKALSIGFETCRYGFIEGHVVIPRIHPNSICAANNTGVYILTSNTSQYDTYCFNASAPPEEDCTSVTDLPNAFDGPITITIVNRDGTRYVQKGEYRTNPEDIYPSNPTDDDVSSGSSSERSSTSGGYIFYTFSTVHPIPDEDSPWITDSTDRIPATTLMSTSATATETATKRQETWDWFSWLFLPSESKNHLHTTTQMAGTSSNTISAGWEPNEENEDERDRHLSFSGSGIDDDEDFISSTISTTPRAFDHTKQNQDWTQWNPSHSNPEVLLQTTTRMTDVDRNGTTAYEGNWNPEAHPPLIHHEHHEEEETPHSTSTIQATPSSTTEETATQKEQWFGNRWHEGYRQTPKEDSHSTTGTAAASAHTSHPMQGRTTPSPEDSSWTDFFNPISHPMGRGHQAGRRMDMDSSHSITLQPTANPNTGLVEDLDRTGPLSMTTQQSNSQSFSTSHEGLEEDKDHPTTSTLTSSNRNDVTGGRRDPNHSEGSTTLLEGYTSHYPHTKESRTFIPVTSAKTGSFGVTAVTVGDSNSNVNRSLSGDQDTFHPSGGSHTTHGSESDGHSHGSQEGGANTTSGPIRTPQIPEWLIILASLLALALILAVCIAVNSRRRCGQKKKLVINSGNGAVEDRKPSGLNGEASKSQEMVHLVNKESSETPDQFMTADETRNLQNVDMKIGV

UniProt P18206, sequence (P18206 whole entry, the tested form may be a part): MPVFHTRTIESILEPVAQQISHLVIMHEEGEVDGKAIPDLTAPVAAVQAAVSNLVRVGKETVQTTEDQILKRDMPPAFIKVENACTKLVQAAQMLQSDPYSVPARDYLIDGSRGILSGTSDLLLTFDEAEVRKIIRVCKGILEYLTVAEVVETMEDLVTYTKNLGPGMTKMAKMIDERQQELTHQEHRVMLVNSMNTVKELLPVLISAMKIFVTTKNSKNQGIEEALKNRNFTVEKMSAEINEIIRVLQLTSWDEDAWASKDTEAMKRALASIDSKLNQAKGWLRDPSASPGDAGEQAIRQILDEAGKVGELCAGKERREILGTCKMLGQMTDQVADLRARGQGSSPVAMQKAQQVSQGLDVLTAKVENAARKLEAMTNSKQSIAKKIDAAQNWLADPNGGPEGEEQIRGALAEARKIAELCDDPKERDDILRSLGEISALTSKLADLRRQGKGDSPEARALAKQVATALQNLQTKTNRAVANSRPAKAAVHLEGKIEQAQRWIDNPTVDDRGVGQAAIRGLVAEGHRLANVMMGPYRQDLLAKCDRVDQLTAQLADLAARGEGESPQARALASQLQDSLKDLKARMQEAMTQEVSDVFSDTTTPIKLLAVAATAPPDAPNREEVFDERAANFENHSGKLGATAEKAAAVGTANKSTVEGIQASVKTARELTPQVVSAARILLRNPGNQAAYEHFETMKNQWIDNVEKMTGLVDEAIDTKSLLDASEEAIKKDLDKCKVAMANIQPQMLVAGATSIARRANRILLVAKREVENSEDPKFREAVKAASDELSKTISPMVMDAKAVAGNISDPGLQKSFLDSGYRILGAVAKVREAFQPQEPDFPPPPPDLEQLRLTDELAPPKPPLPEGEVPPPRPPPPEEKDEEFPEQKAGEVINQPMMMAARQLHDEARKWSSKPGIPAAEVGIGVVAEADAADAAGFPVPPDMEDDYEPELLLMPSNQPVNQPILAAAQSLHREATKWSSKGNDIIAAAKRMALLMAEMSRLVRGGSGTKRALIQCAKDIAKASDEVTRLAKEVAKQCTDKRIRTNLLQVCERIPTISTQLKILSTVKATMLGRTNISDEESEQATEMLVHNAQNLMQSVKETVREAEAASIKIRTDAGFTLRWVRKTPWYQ

## YFP-hMena (human Mena fused to monomeric Venus) (from UniProt Q8N8S7 1-591) (natural protein)
[1]
  FRET efficiency (FA, focal adhesion): 19
[2]
  FRET efficiency (cytosol): -7
  FRET efficiency (peripheral): -2
